Where a chain is given by its changes, count along the chain named.
B1: chimeric anti-human IL-12p40 antibody 1D4-Chim (antibody, human IgG1, kappa, L234A L235A, V domains shown)
VH: QVTLKESGPGILQPSQTLSLTCSFSGFSLRKSVMGVSWIRQPSGKGLEWLAHIYWDDDKYYNPSLKSRLTISKDPSRNQVFLKITSVDTADAATYYCTRRGIRSAMDYWGQGTSVTVSS
VL: SVVMTQTPKFLLVSAGDRVTITCKASQSVSNDVAWYQQKPGQSPKLLIYYASNRYTGVPDRFTGSGYGTDFTFIISTVRAEDLAVYFCQQDYNSPWTFGGGTKLEIKR
B2: anti-IL-12p40 hybrid antibody 1D4.4 (antibody, human IgG1, kappa, L234A L235A, V domains shown)
VH: EVTLRESGPALVKPTQTLTLTCTFSGFSLSKSVMGVSWIRQPPGKALEWLAHIYWDDDKYYNPSLKSRLTISKDTSKNQVVLTMTNMDPVDTATYYCARRGIRSAMDYWGQGTTVTVSS
VL: B1 VL
B3: anti-IL-12p40 hybrid antibody 1D4.5 (antibody, human IgG1, kappa, L234A L235A, V domains shown)
VH: B1 VH
VL: DIVMTQSPDSLAVSLGERATINCKASQSVSNDVAWYQQKPGQPPKLLIYYASNRYTGVPDRFSGSGSGTDFTLTISSLQAEDVAVYYCQQDYNSPWTFGGGTKVEIKR
B4: anti-IL-12p40 hybrid antibody 1A6.3 (antibody, human IgG1, kappa, L234A L235A, V domains shown)
VH: EVTLKESGPVLVKPTETLTLTCTVSGFSLSTSGMGVSWIRQPPGKALEWLAHIWWDGDNYYNPSLKSRLTISKDTSKSQVVLTMTNMDPVDTATYYCARRTRVNYAMDYWGQGTTVTVSS
VL: B1 VL with Y36F, I74T, R79Q
B5: anti-IL-12p40 hybrid antibody 1A6.4 (antibody, human IgG1, kappa, L234A L235A, V domains shown)
VH: QVTLKESGPGILKPSQTLSLTCSFSGFSLSTSGMGVSWIRQPSGKGLEWLAHIWWDGDNYYNPSLKSQLTISKDTSRNQVFLRIATVDTADTATYYCARRTRVNYAMDYWGQGTSVTVSS
VL: EIVMTQSPATLSVSPGERATLSCKASQSVSNDVAWYQQKPGQAPRLLIYYASNRYTGIPARFSGSGSGTEFTLTISSLQSEDFAVYYCQQDYNSPWTFGGGTKVEIKR
notes: Hybrid: chimeric murine H chain paired with CDR-grafted L chain
B6: anti-IL-12p40 hybrid antibody 1A6.7 (antibody, human IgG1, kappa, L234A L235A, V domains shown)
VH: B5 VH
VL: B3 VL
B7: anti-IL-12p40 hybrid antibody 1A6.8 (antibody, human IgG1, kappa, L234A L235A, V domains shown)
VH: B4 VH with K5R, V10A, E16Q, V24F, S78N
VL: B1 VL with Y36F, I74T, R79Q

Target: T1, recombinant purified cyno IL-12 p70 (cynomolgus monkey)
T1 chain 1: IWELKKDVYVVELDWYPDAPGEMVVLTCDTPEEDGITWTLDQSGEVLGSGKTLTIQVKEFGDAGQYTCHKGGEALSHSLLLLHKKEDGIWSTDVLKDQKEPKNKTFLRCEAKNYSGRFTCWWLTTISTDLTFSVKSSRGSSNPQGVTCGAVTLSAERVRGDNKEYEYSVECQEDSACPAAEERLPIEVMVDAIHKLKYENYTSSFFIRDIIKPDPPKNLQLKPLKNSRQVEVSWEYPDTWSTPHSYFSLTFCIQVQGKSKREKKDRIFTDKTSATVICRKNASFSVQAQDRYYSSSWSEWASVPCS
T1 chain 2: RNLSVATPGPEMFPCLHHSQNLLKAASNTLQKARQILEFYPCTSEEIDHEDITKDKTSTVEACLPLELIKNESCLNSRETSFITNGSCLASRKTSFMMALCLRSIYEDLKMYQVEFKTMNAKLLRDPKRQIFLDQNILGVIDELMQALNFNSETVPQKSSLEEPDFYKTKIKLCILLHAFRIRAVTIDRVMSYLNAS
Assay: cell-based or functional assay

| Binder | Average IC50 (nM) Cyno IL-12, PHA blast IFN-γ assay [nM] |
| --- | --- |
| B1 | 0.07 |

target: T2, recombinant purified human IL-12 p70 (human, UniProt P29459 23-219); assay: cell-based or functional assay
T2 sequence 1: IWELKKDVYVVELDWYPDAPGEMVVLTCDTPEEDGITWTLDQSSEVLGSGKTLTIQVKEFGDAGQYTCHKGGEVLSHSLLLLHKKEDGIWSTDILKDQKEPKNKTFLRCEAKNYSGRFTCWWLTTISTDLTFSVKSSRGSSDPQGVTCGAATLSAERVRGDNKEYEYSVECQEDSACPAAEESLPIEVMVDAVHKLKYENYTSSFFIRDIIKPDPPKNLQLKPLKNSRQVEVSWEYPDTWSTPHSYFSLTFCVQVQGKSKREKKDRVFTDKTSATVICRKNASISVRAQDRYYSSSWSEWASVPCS
T2 sequence 2: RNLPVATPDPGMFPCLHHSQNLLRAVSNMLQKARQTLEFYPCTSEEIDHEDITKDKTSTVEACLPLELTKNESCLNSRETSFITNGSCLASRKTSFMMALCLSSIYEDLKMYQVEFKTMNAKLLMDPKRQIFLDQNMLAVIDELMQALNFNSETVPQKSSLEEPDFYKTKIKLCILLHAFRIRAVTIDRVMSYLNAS

| Binder | Average IC50 (nM) Human IL-12, PHA blast IFN-γ assay [nM] |
| --- | --- |
| B1 | 0.021 |

Target: T1, recombinant purified cyno IL-12 p70
Assay: cell-based or functional assay
Remark: another data set of the same source

| Binder | Av. IC50 (nM) Cyno IL-12, PHA blast assay [nM] |
| --- | --- |
| B2 | 1.1 |
| B3 | 0.11 |
| B4 | 0.049 |
| B5 | 1.2 |
| B6 | 0.35 |
| B7 | 0.06 |

target: T2, recombinant purified human IL-12 p70; assay: cell-based or functional assay; remark: another data set of the same source

| Binder | Av. IC50 (nM) huIL-12, PHA blast assay [nM] |
| --- | --- |
| B2 | 0.64 |
| B3 | 0.053 |
| B4 | 0.068 |
| B5 | 2.1 |
| B6 | 0.29 |
| B7 | 0.08 |

target: T2, recombinant purified human IL-12 p70; assay: SPR (BIAcore) as in Example 1.1.B
Experimental: The BIACORE assay (Biacore, Inc, Piscataway, N.J.) determines the affinity of antibodies with kinetic measurements of on-, off-rate constants. Binding of antibodies to recombinant purified human IL-12 p70 or recombinant purified human IL-12 p40 were determined by surface plasmon resonance-based measurements with a Biacore® 3000 instrument (Biacore® AB, Uppsala, Sweden) using running HBS-EP (10 mM HEPES [pH 7.4], 150 mM NaCl, 3 mM EDTA, and 0.005% surfactant P20) at 25° C. All chemicals were obtained from Biacore® AB (Uppsala, Sweden) or otherwise from a different source as described in the text. Approximately 5000 RU of goat anti-mouse IgG, (Fcγ), fragment specific polyclonal antibody (Pierce Biotechnology Inc, Rockford, Ill.) diluted in 10 mM sodium acetate (pH 4.5) was directly immobilized across a CM5 research grade biosensor chip using a standard amine coupling kit according to manufacturer's instructions and procedures at 25 μg/ml. Unreacted moieties on the biosensor surface were blocked with ethanolamine. Modified carboxymethyl dextran surface in flowcell 2 and 4 was used as a reaction surface. Unmodified carboxymethyl dextran without goat anti-mouse IgG in flow cell 1 and 3 was used as the reference surface. For kinetic analysis, rate equations derived from the 1:1 Langmuir binding model were fitted simultaneously to association and dissociation phases of all eight injections (using global fit analysis) with the use of Biaevaluation 4.0.1 software. Purified antibodies were diluted in HEPES-buffered saline for capture across goat anti-mouse IgG specific reaction surfaces. Mouse antibodies to be captured as a ligand (25 μg/ml) were injected over reaction matrices at a flow rate of 5 μl/min. The association and dissociation rate constants, kₒₙ (unit M⁻¹ s⁻¹) and koff (unit s⁻¹) were determined under a continuous flow rate of 25 μl/min. Rate constants were derived by making kinetic binding measurements at ten different antigen concentrations ranging from 10-200 nM. The equilibrium dissociation constant (unit M) of the reaction between mouse antibodies and recombinant purified human IL-12 p70 or recombinant purified human IL-12 p40 was then calculated from the kinetic rate constants by the following formula: KD=koff/kₒₙ. Binding is recorded as a function of time and kinetic rate constants are calculated.

| Binder | Kd [nM] | koff [s⁻¹] | kon [M⁻¹ s⁻¹] |
| --- | --- | --- | --- |
| B2 | 0.074 | 2.1e-05 | 280000 |
| B3 | 0.11 | 3.1e-05 | 300000 |
| B4 | 0.14 | 2.6e-05 | 190000 |
| B5 | 1 | 0.00011 | 110000 |

From patent US20140178332A1 (published 2014)
